According to article PMC11862925:

Assays:
[1] = target: B.1.351 variant RBD (K417N, E484K, N501Y) (SARS-CoV-2) (UniProt P0DTC2); assay: BLI
[2] = target: B.1.617.1/3 variant RBD (L452R, E484Q) (SARS-CoV-2) (UniProt P0DTC2); assay: BLI

Work on “ACE2-COMP (from UniProt Q9BYF1 19-615; P35444 29-73)” yielded a percent of bound ACE2-COMP retained after 8 h of dissociation [1] of 90% and a percent of bound ACE2-COMP retained after 8 h of dissociation [2] of 90%.
